Laboratory results published in paper doi:10.1101/2025.04.07.647595, “Real-time tracking of mRNP complex assembly reveals various mechanisms that synergistically enhance translation repression”.

Biological target: T1, Sxl-dRBD5 (UniProt P19339 122-305)
T1 sequence: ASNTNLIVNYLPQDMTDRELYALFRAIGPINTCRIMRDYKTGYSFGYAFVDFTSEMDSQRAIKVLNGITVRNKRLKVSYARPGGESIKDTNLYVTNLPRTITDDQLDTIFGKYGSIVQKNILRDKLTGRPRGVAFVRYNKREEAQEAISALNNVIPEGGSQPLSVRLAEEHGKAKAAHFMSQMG
Test: NMR; BMRB 52948; C-terminal helix forms on RNA binding; FP: 10 mM Tris/HCl pH 7.5, 20 mM KCl, 25 mM NaCl, 0.005% NP-40; ITC: 50 mM Tris/HCl pH 7.5, 50 or 150 mM KCl, 298 K; smFRET: 50 mM salt at 21 C, or 150 mM at 29 C for Hrp48 assays
Conditions: protein: recombinant; tags: His6-Trx-TEV removed

## UUUUUUUUUU (ssRNA) [U10-mer RNA]
  binding result: binds
